Measurements as given in patent US20240166755A1, “CHIMERIC ANTIGEN RECEPTORS TARGETING CANCER” (University of Southern California, priority 2016, published 2024).

B1: CD8SP-MPL-VB22Bw4-(vL-vH)-Myc-CD28z-T2A-PAC(031615-B06): CAR construct targeting MPL, VB22Bw4 scFv, CD28 costimulatory domain (protein)
chain: MALPVTALLLPLALLLHAARPDDIVMTQSPLSLPVTPGEPASISCRSSKSLLHSNGNTYLYWFLQKPGQSPQLLIYRMSNLASGVPDRFSGSGSGTDFTLKISRVEAEDVGVYYFMQHIEYPFTFGQGTKLEIKGGGGSGGGGSGGGGSQVQLVQSGPEVKKPGASVKVSCKASGYTFTNSWMNWVRQRPGKGLEWIGRIYPGDGETIYNGKFRVRVTITADESTSTAYMQLSSLRSEDTAVYYCARGYDDYSFAYWGQGTTVTVSSTREQKLISEEDLKIEVMYPPPYLDNEKSNGTIIHVKGKHLCPSPLFPGPSKPFWVLVVVGGVLACYSLLVTVAFIIFWVRSKRSRLLHSDYMNMTPRRPGPTRKHYQPYAPPRDFAAYRSRVKFSRSADAPAYQQGQNQLYNELNLGRREEYDVLDKRRGRDPEMGGKPRRKNPQEGLYNELQKDKMAEAYSEIGMKGERRRGKGHDGLYQGLSTATKDTYDALHMQALPPRSSGSGEGRGSLLTCGDVEENPGPHMTEYKPTVRLATRDDVPRAVRTLAAAFADYPATRHTVDPDRHIERVTELQELFLTRVGLDIGKVWVADDGAAVAVWTTPESVEAGAVFAEIGPRMAELSGSRLAAQQQMEGLLAPHRPKEPAWFLATVGVSPDHQGKGLGSAVVLPGVEAAERAGVPAFLETSAPRNLPFYERLGFTVTADVEVPEGPRTWCMTRKPGA
modifications: listed as DNA
B2: CD8SP-12E10-(vL-vH)-Myc-CD28z-T2A-PAC(031615-S03): CAR construct targeting MPL, 12E10 scFv, CD28 costimulatory domain (protein)
chain: MALPVTALLLPLALLLHAARPDQVQLQQSGPGLVKPSETLSLTCTVSGDSISSYYWSWIRQPPGKGLEWIGYIYYSGSTNYNPSLKSRVTISVDTSKSQFSLKLSSVTAADTAVYYCARGRYFDVWGRGTMVTSSGGGGSGGGGSGGGGSSSYVLTQPPSVSGSPGQSITISCTGTSSDVGGYNYVSWYQQHPGKAPKLMIYEGSKRPSGVSNRFSGSKSGNTASLTISGLQAEDEADYYCSSYTTRSTRVFGGGTKLTVLGAAATREQKLISEEDLKIEVMYPPPYLDNEKSNGTIIHVKGKHLCPSPLFPGPSKPFWVLVVVGGVLACYSLLVTVAFIIFWVRSKRSRLLHSDYMNMTPRRPGPTRKHYQPYAPPRDFAAYRSRVKFSRSADAPAYQQGQNQLYNELNLGRREEYDVLDKRRGRDPEMGGKPRRKNPQEGLYNELQKDKMAEAYSEIGMKGERRRGKGHDGLYQGLSTATKDTYDALHMQALPPRSSGSGEGRGSLLTCGDVEENPGPHMTEYKPTVRLATRDDVPRAVRTLAAAFADYPATRHTVDPDRHIERVTELQELFLTRVGLDIGKVWVADDGAAVAVWTTPESVEAGAVFAEIGPRMAELSGSRLAAQQQMEGLLAPHRPKEPAWFLATVGVSPDHQGKGLGSAVVLPGVEAAERAGVPAFLETSAPRNLPFYERLGFTVTADVEVPEGPRTWCMTRKPGA
modifications: listed as DNA
B3: CD8SP-178-(vL-vH)-Myc-CD28z-T2A-PAC(031615-R04): CAR construct targeting MPL, 178 scFv, CD28 costimulatory domain (protein)
chain: MALPVTALLLPLALLLHAARPDIVMTQAAPSIPVTPGESVSISCRSDKSLLHSNGNTYLFWFLQRPGQSPQLLIYRMSNLASGVPDRFSGSGSGTAFTLRISGVEAEDVGVYYCMQHLEYPYTFGGGTKLEIKGGGGSGGGGSGGGGSQVQLQQSGPELVKPGASVKMSCKASGYAFSSSWLNWVRQRPGKGLEWIGRIYPGDGENHYNGKFKGKATLTADKSSSTGYMQLSSLTSEDSAVYFCASYYEGGYWGQGTLITVSATREQKLISEEDLKIEVMYPPPYLDNEKSNGTIIHVKGKHLCPSPLFPGPSKPFWVLVVVGGVLACYSLLVTVAFIIFWVRSKRSRLLHSDYMNMTPRRPGPTRKHYQPYAPPRDFAAYRSRVKFSRSADAPAYQQGQNQLYNELNLGRREEYDVLDKRRGRDPEMGGKPRRKNPQEGLYNELQKDKMAEAYSEIGMKGERRRGKGHDGLYQGLSTATKDTYDALHMQALPPRSSGSGEGRGSLLTCGDVEENPGPHMTEYKPTVRLATRDDVPRAVRTLAAAFADYPATRHTVDPDRHIERVTELQELFLTRVGLDIGKVWVADDGAAVAVWTTPESVEAGAVFAEIGPRMAELSGSRLAAQQQMEGLLAPHRPKEPAWFLATVGVSPDHQGKGLGSAVVLPGVEAAERAGVPAFLETSAPRNLPFYERLGFTVTADVEVPEGPRTWCMTRKPGA
modifications: listed as DNA
B4: CD8SP-AB317-(vL-vH)-Myc-CD28z-T2A-PAC(031615-T04): CAR construct targeting MPL, AB317 scFv, CD28 costimulatory domain (protein)
chain: MALPVTALLLPLALLLHAARPDIVLTQSPASLAVSLGQSVTISCRASESVEYYGTSLMQWYQQKPGQPPKLLIYGASNVESGVPARFSGSGSGTDFSLNIHPVEEDDIAMYFCQQSRKVPWTFGGGTKLEIKGGGGSGGGGSGGGGSEVKLVESGGGLVKPGGSRKLSCAASGFTFSSYTMSWVRQTPAKRLEWVATISSGSSTIYYADTVKGRFTISRDNAKNTLFLQMTSLRSEDTAMYYCARRWFLDCWGQGTTLTVSSTREQKLISEEDLKIEVMYPPPYLDNEKSNGTIIHVKGKHLCPSPLFPGPSKPFWVLVVVGGVLACYSLLVTVAFIIFWVRSKRSRLLHSDYMNMTPRRPGPTRKHYQPYAPPRDFAAYRSRVKFSRSADAPAYQQGQNQLYNELNLGRREEYDVLDKRRGRDPEMGGKPRRKNPQEGLYNELQKDKMAEAYSEIGMKGERRRGKGHDGLYQGLSTATKDTYDALHMQALPPRSSGSGEGRGSLLTCGDVEENPGPHMTEYKPTVRLATRDDVPRAVRTLAAAFADYPATRHTVDPDRHIERVTELQELFLTRVGLDIGKVWVADDGAAVAVWTTPESVEAGAVFAEIGPRMAELSGSRLAAQQQMEGLLAPHRPKEPAWFLATVGVSPDHQGKGLGSAVVLPGVEAAERAGVPAFLETSAPRNLPFYERLGFTVTADVEVPEGPRTWCMTRKPGA
modifications: listed as DNA

Legend:
[1] = tested on: Jurkat cells stably expressing MPL and GLuc; assay: GLuc cell death assay, Jurkat-MPL-GLuc target cells; details: T cells, puromycin selected, E:T 10:1, 4 hours
[2] = tested on: HEL cells stably expressing GLuc; assay: GLuc cell death assay, HEL-GLuc target cells; details: T cells, puromycin selected, E:T 10:1, 4 hours
Protocol: The blood samples to isolate Peripheral blood mononuclear cells (PBMCs) were obtained from healthy de-identified adult donors. PBMC were isolated from buffy coats by Ficoll-Hypaque gradient centrifugation and re-suspended in XVIVO medium (Lonza) supplanted with 10 ng/ml soluble anti-CD3, 10 ng/ml soluble anti-CD28 and 100 IU recombinant human-IL2. […] The PBMC expressing the indicated CARs and uninfected PBMC were co-cultured with HEL-GLuc target cells for 4 h and lysis of target cells measured by the single-step homogenous GLuc assay by injecting 0.5× CTZ assay buffer as described above.
Cells were selected with puromycin and expanded.
Cells were subsequently co-cultured overnight with HEL.92.1.7 cells that had been engineered to express GLuc.

| Molecule | GLuc activity (lysis of target cells) [1] | GLuc activity (lysis of target cells) [2] |
| --- | --- | --- |
| B1 | modest | – |
| B2 | stronger | – |
| B3 | modest | modest |
| B4 | stronger | stronger |
